From article PMC3218020, “Subtype Differences in Pre-Coupling of Muscarinic Acetylcholine Receptors” (PLoS ONE, 2011)

Key:
[1] = molecular target: T1, M2 muscarinic acetylcholine receptor (Homo sapiens, UniProt P08172); experiment: radioligand binding, CHO membranes; settings: labelled compound; antagonist; […] °C, pH […]
T1 construct: gene CHRM2; full-length receptor stably expressed in CHO cells, crude membranes
T1 sequence (P08172 1-466): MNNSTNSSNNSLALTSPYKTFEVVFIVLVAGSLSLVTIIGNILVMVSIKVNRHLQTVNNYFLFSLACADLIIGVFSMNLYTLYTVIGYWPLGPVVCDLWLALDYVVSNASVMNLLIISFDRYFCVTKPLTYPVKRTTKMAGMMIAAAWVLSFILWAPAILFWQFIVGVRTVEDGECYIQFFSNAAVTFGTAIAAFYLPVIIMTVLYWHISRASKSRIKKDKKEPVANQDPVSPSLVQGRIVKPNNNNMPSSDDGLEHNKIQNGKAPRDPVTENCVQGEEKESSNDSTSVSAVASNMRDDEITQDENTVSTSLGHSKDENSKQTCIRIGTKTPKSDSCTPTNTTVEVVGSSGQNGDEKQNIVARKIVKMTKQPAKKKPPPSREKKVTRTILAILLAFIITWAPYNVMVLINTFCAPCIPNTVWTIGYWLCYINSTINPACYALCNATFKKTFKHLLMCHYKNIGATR

[2] = molecular target: G_(s/olf) G-proteins (Chinese hamster (endogenous in CHO))
[3] = molecular target: Gi/o G-proteins (Chinese hamster (endogenous in CHO))
[4] = molecular target: G_(q/11) G-proteins (Chinese hamster (endogenous in CHO))
[5] = molecular target: G-proteins (Chinese hamster (endogenous in CHO))

Molecule | radioligand binding, CHO membranes [1] | EMAX of carbachol-stimulated [35S]GTPγS binding to G (s/olf) G-proteins via the receptor (scintillation proximity assay, CHO membranes, carbachol 0.1 µM to 1 mM) (fold increase of basal binding) [2] | EMAX of carbachol-stimulated [35S]GTPγS binding to Gi/o G-proteins via the receptor (scintillation proximity assay, CHO membranes, carbachol 0.1 µM to 1 mM) (fold increase of basal binding) [3] | EMAX of carbachol-stimulated [35S]GTPγS binding to G (q/11) G-proteins via the receptor (scintillation proximity assay, CHO membranes, carbachol 0.1 µM to 1 mM) (fold increase of basal binding) [4] | fraction of low-affinity sites (f low) for carbachol in competition with 1 nM [3H]NMS, membranes of the newly prepared CHO cell line [5] [percent]
C[N+]1(C)[C@@H]2C[C@@H](OC(=O)[C@H](CO)c3ccccc3)C[C@H]1[C@@H]1O[C@@H]12 [[3H]-N-methylscopolamine] | N-methylscopolamine binding was measured directly in saturation experiments using six concentrations | – | – | – | –
human M1 muscarinic acetylcholine receptor (from UniProt P11229 1-460) | – | 1.92 | 2.01 | 3.9 | –
human M2 muscarinic acetylcholine receptor (from UniProt P08172 1-466) | – | 1.93 | 3.44 | 1.63 | –
human M3 muscarinic acetylcholine receptor (from UniProt P20309 1-590) | – | 2.16 | 2.16 | 3.31 | –
human M4 muscarinic acetylcholine receptor (from UniProt P08173 1-479) | – | 2.18 | 3.15 | 1.59 | –
wild-type human M1 muscarinic receptor (newly prepared CHO cell line) (from UniProt P11229 1-460) | – | – | – | – | 72
